Measured values from patent US20100092481A1.

B1: 13H11 (antibody, V domains shown)
VH: QVQLVQSGAEVKKPGASVKVSCKASGYTFTNYYIHWVRQAPGQGLEWMGIIHPSSGGTSYAQKFQGRVTMTRDTSTSTVSMDLSSLRSEDTAVYYCGRAFRILGLSDVFVNDWGQGTVVTVSS
VL: DIQMTQSPSSLSASVGDRVTITCRASQGINNYLAWYQQKPGKVPKLLIYAASTLQSGVPSRFSGSGSGTAFTLTILSLQPEDVATYYCQKYNSAPFTFGPGTKVDIK
B2: 6B4 (antibody, V domains shown)
VH: QVQLVESGGGVVQPGRSLRLSCAASGFRFNEFNMHWVRQAPGKGLEWVAVISIDGRHKYNADSVEGRFTISRDNSRNTLYLQMNSLRVEDTALYYCVTDGKAVDGFSGILEFWGQGTPVTVST
VL: EIVLTQSPATLSLSPGERATLSCWASQSVGGYLAWYQQKPGQAPRLLIYDASIRATGIPARFSGSGSGTHFTLTINSLEPEDFAVYYCQQRNNWPPLTFGGGTKVEIK
B3: 3G16 (antibody, V domains shown)
VH: RAQLVQSAAEMKNPGASVKVSCEASGYTFTGYYVHWMRQAPGQGLEWMGWINPMTGATKSPQKFQGRVTMTRDTSTTATHIELTRLRSDDSAVFFCARGGPTSTRITGKRHFDLWGRGTLITVAS
VL: QSALTQPASVSGSPGESITISCTGTISDVGAYNSVSWYQQHSGTAPELIIYDVTNRPAGVSSRFSGSKSGNTASLTISWLQSEDEAEYYCSSYTTSDTYVFGSGTQVTVL
B4: 11B12 (antibody, V domains shown)
VH: QMQLVQSGPQVKKPGTSVKVSCKASGFTFTSSAMQWVRQARGQRPEWIGWIVLGSGNTNYAQKFQERVTLTRDMSTATAYMELSSLRSEDTAVYYCAADRGRGGYNVYTYWGQGTLVAVSS
VL: EIVMTQSPGTLSLSPGERATLSCRASQTISNTYVAWYQQKPGQAPRLLIYGASSRATGIPDRFSGSGSGTDFTLTIRRLEPEDFAVYYCQQNGQSPWTFGQGTNVEIK

Key:
[1] = target: T1, hCMV gH protein, full length, expressed in HEK293T cells (human cytomegalovirus), P12824; assay: cell cross-competition, 20x excess; competitor 3G16-biotin; conditions: remark: other sources report otherwise
[2] = target: T1, hCMV gH protein, full length, expressed …; assay: cell cross-competition, 20x excess; competitor 11B12-biotin; conditions: remark: other sources report otherwise
[3] = target: T1, hCMV gH protein, full length, expressed …; assay: cell cross-competition, 20x excess; competitor 13H11-biotin; conditions: remark: other sources report otherwise
[4] = target: gB 69-78 peptide (human cytomegalovirus) (UniProt P06473); assay: ELISA on peptide

Binder	Inhibition of binding (%) [1]	Inhibition of binding (%) [2]	Inhibition of binding (%) [3]	EC50 [4]
B1	0%	100%	100%	
B2				0.044 µg/mL
B3	100%	0%	0%	
B4	0%	100%	100%	
